Experimental data taken from the supplement of paper PMC9732359.
± gives the uncertainty stated by the source.

Test: protein stability index of a GFP-peptide fusion (yeast GPS) (PSI 1-4); higher = more stable; sorted into four equal gates, so the index is relative within each strain
In short: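 Tiled 17-residue yeast protein peptides were fused downstream of GFP in a plasmid that also expresses Cherry, and the pooled library was carried in yeast. Mid-log cultures in leucine-free medium were sorted into four equal gates by GFP/Cherry fluorescence ratio, and plasmids from each gate were PCR-amplified and Illumina-sequenced, with reads assigned to strains by barcodes. The protein stability index for each peptide was each gate's read frequency times its gate number, summed.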

| Sequence | protein stability index (doa10∆) | protein stability index (pdr5∆) | protein stability index (san1∆) | protein stability index (ubr1∆) |
| --- | --- | --- | --- | --- |
| NKQPRNESFNRRISSMP [YAR002W/NUP60] | 2.62 ± 0.068 | 3.04 ± 0.07 | 2.53 ± 0.078 | 2.99 ± 0.038 |
| YLDADVAKLANWFLEVY [YML031W/NDC1] | 2.45 ± 0.081 | 2.63 ± 0.099 | 2.91 ± 0.12 | 2.79 ± 0.077 |
| LIAEESEDDSESGKVFI [RPB2] | 3.03 ± 0.23 | 3.63 ± 0.29 | 3.48 ± 0.29 |  |
| NKEMETQRIMTNVIAFA [YLR018C/POM34] | 2.33 ± 0.1 | 2.46 ± 0.07 | 1.99 ± 0.15 | 2.46 ± 0.058 |
| LAIKDSKKRFAAIWTLC [RPO21] | 1.9 ± 0.045 | 1.92 ± 0.045 | 1.8 ± 0.072 | 2.1 ± 0.036 |
| KGNFRTKPFENVEKYPT [SNU114] |  | 3 ± 0.24 | 3.16 ± 0.25 |  |
| SDKDATTDGKNDDEEEE [RPN1] |  | 3.33 ± 0.26 |  |  |
| ADDVFTGTGLQDENIGL [RPC31] | 3.46 ± 0.11 | 3.44 ± 0.096 | 3.21 ± 0.057 | 3.33 ± 0.07 |
| SIGSDILTAEKMRGNGN [RRP4] | 3.21 ± 0.097 | 3.39 ± 0.09 | 3.38 ± 0.05 | 3.32 ± 0.062 |
| DLSTLVHSSSPSTSSNM [GAL11] | 2.77 ± 0.066 | 2.91 ± 0.069 | 2.71 ± 0.082 | 2.78 ± 0.039 |
| NISNNLQKALTVKTNDE [RPN8] | 3.02 ± 0.16 | 3 ± 0.11 | 2.82 ± 0.14 | 2.88 ± 0.067 |
| KAKKLIQSLPPTLKVNR [RPL38] | 2.13 ± 0.039 | 2.18 ± 0.039 | 2.02 ± 0.048 | 2.27 ± 0.036 |
| DANRNANNIVNIVSDAG [GRR1] | 3.07 ± 0.068 | 3.06 ± 0.059 | 2.99 ± 0.041 | 2.97 ± 0.067 |
| RLQAKRLKDVEWVKLHR [RMP1] | 2.97 ± 0.069 | 3.09 ± 0.076 | 3.15 ± 0.056 | 2.03 ± 0.062 |
| FDHNDKKLSINSAARNI [PRE7] | 2.72 ± 0.059 | 2.47 ± 0.059 | 2.4 ± 0.055 | 2.83 ± 0.065 |
| NIDSLKFNELVKLMKNI [BRR2] | 1.37 ± 0.04 | 1.63 ± 0.067 | 1.5 ± 0.11 | 1.8 ± 0.052 |
| IEHPMTSAIEVLVGSCA [RPN1] | 1.94 ± 0.043 | 1.81 ± 0.042 | 2.14 ± 0.057 | 1.82 ± 0.046 |
| IKNIGKSLKNNFYRPLL [YML103C/NUP188] | 2.6 ± 0.08 | 2.62 ± 0.1 | 2.7 ± 0.079 | 2.77 ± 0.078 |
| ELRFPSPTPIQRITIPN [PRP28] | 2.02 ± 0.093 | 2.19 ± 0.071 | 1.85 ± 0.081 | 2.06 ± 0.058 |
| KTAYSIYLSQNELTDAI [RPN1] | 2.48 ± 0.037 | 2.28 ± 0.038 | 2.71 ± 0.037 | 2.08 ± 0.023 |

| Sequence | protein stability index (doa10∆) | protein stability index (pdr5∆) | protein stability index (san1∆) | protein stability index (ubr1∆) |
| --- | --- | --- | --- | --- |
| TLRKELEQIQVQLKDAN [YIL149C/MLP2] | 2.51 ± 0.1 | 2.96 ± 0.093 | 2.67 ± 0.096 | 2.24 ± 0.051 |
| PDAQNELPKFILSDSPL [DIS3] | 2.87 ± 0.048 | 3.03 ± 0.063 | 2.87 ± 0.044 | 2.92 ± 0.079 |
| LCSMLQEASQVTFIFGE [MED11] | 2.06 ± 0.053 | 2.74 ± 0.048 | 2.61 ± 0.055 | 2.56 ± 0.037 |
| MSANGFAADGDALVKRF [PRE7] | 3.35 ± 0.26 | 3.4 ± 0.23 | 2.9 ± 0.21 | 3.41 ± 0.053 |
| EEPSRVDPEQEAHNKAL [RPT4] | 3.4 ± 0.16 | 3.31 ± 0.1 | 3.46 ± 0.063 | 3.23 ± 0.11 |
| VQLRYGDYDSHDISRYV [PRP8] | 2.41 ± 0.062 | 2.46 ± 0.064 | 2.69 ± 0.075 | 2.09 ± 0.044 |
| QQFNLHEILSEPAIEEE [MED1] | 2.94 ± 0.15 | 3.1 ± 0.12 | 2.98 ± 0.17 | 3.26 ± 0.13 |
| MTTTIGSPQMLANEERL [RGR1] |  |  |  | 2.63 ± 0.25 |
| DTKNLYVIKALQSLTSK [RPS10A] | 1.75 ± 0.077 | 1.95 ± 0.077 | 1.3 ± 0.16 | 1.34 ± 0.078 |
| GISMFDYISGISVGLYD [SKI6] | 2.02 ± 0.092 | 2.02 ± 0.069 | 2.03 ± 0.069 | 2.1 ± 0.052 |
| RLQQGRRLPMTMFTAEQ [SNF2] | 3.09 ± 0.053 | 3.19 ± 0.048 | 3.13 ± 0.043 | 3.27 ± 0.045 |
| SYTAFSRLTLLLRALKT [PRP8] | 1.27 ± 0.042 | 1.19 ± 0.037 | 1.24 ± 0.082 | 1.25 ± 0.035 |
| RHNKSHTLCNRCGRRSF [RPL37A] | 3.25 ± 0.045 | 3.18 ± 0.064 | 2.82 ± 0.042 | 3.08 ± 0.039 |
| NSNTTNQNSSTGAGAFG [YJL041W/NSP1] | 3.04 ± 0.053 | 3.07 ± 0.074 | 3.03 ± 0.051 | 2.96 ± 0.05 |
| GGTSLFGNTSTSSAPAQ [YGL172W/NUP49] | 2.17 ± 0.17 | 2.19 ± 0.096 |  | 2.15 ± 0.091 |
| RGLTPQEFFFHAMGGRE [RPO21] | 2.32 ± 0.05 | 2.42 ± 0.054 | 2.2 ± 0.074 | 2.35 ± 0.046 |
| NDGNNRTNNVPMIKAEE [NUT1] | 3.05 ± 0.17 | 3.31 ± 0.14 | 2.65 ± 0.17 | 3.77 ± 0.16 |
| TKISTLAVKVHGGSRYA [QCR2] | 1.34 ± 0.12 | 1.64 ± 0.21 | 1.18 ± 0.29 | 1.41 ± 0.17 |
| RLGFFYNDQLYVKEKLE [RPN7] | 2.56 ± 0.17 | 3.13 ± 0.19 |  | 3.5 ± 0.087 |
| CAINSKSRGSDLQYLGE [RRP6] | 3.11 ± 0.06 | 3.18 ± 0.068 | 2.7 ± 0.069 | 3.2 ± 0.053 |
